The text below walks through data of a protein production outcome set (Wang et al. 2014).

The nature of this data set: label from the status in PepcDB records.
As for “MVALPDWMALAPALSLALASLVLLLADSIDPDSTNTGLLAGISVLGSLLSFGFAGWFITAGTGMADNTGVALFNSQLVVDQMALFFMAIVGSVTTLVVLASYDYITEHSYQAEFFALVLLSATGMSLLSAANSLATAFVALELVSLPSYALVAFLKENKGSVEAGLKYFLIGAVSSAVLAYGISLVYAATGVLRFDGVATAISSGTIQTISEGSIQAQSGDPAVPMAILGVGILMIIGGVAFKTASVPFHFWAPEAYEGAPAPISAFLSSASKAAGFVLAFRAFAVAFPIGDLLAAGGAINWVMAFQILAIATMFIGNFAAATQETVKRMLAYSSVGHAGYVLIGLAAVSGSGEGLSLSLSAGMSHLLVYGFMNTGAFLFIALAEYWGVGRRFEDYNGLGKEAPVACAAMTVFLFSLAGLPIGGGFFSKFYLFSATLNVGAWSLAAALIINSALSLFYYSRVVKAMWIEEPTGSRTIESYPMGLYTAVVGAAIVTVLLVPGFNRVSEIAFQAAQLL”, the protein production entry is on record as “failed”.

Regarding “MGTLPARRHIPPWVKVPEDLKDPEVFQVQTRLLKAIFGPDGSRIPYIEQVSKAMLELKALESSDLTEVVVYGSYLYKLRTKWMLQSMAEWHRQRQERGMLKLAEAMNALELGPWMK”, the protein production result is “failed”.

As to “MKDISLKDKITQGINDLFYIWKREFRTTFRDQGVLIFFVLVPLVYPLIYSFIYTNEVVREVPAVVVDDSRSSLSREYLRKVDATPDIQIVAYCADMEEAKQMLKDRLAYGIIYIPKDFSSDIAQGKQTQVSIYCDMSGLLYYKSMLLANTAVSLDMNENIKIARSGNTTDRQDEITAYPIEYEDVAMFNPTNGFAAFLIPAVLILIIQQTLLLGIGLSAGTARENNRFKDLVPINRHYNGTLRIVLGKGLSYFMVYALVSVYVLCAVPRMFSLNQIGQPGTLALFILPYLMACIFFAMTASIAIRNRETCMLIFVFTSVPLLFISGISWPGAAIPPFWKYFSYIFPSTFGINGFVRINNMGATLSEIPFEYKALWIQTGFYFLTTCWVYRWQIIKSRKHVIDKYKEMKNKGKEFFS”, the protein production result is given as “failed”.

Regarding “PNFEKMKKEVEEILYNLKKEGGKYHCILAFSGGKDSVLALKLLKEKFKLNPLCVMVDNKYMAKEAIENALNVTKHYQVDLMILNRDYTDLFEDAIKRGESPCRRCSRLILREVWRVTKLLGLKYIITGHELP”, the protein production entry is listed as “not failed”.

As to “MELNAVKSSYARWAPIYDKTFGAITNVGRHAAVDYINAHDATELLEVGVGTGLSLPNYRPGLKVTGIDFSEEMLAKARAKVESLGLGHVQSLRQMDARDLDFADASFDVVAAMHIISVVPEPERVMAEMARVCKPGGLIVITNHFARDSGMLARVERFAAPFANLLGWHPDFEISSVLKQPLEHHHHHH”, the protein production result is reported as “failed”.

For the sequence “KVILYARVSSSTQKDELVNQVKYLEEQVKEYDLVITDIGSGLNMKRKGFLKLLRMILNNEVSRVVVAYPDRLVRVGFEILEEVCKAHNCEIVVLNQEDKEEELVEDLMSALVSFSGKLYGMRSHEYEKVKKCAEELKNW”, the protein production entry was “not failed”.

Consider “MEKALTKVTSFKVGSSWISKKAKEELSNITNDLTTFSSTVEEKAKWIFNKLKGKPLKSLPDLLKEYNLPPGLFPQNIICYEFDETKNKLTVFFSSPCEVTFKDGSAIRYATRVKGILLRGKLMGVEGMKTKVLVWVKVTTISVESSKSDKLWFTAGVKKSRSKDVYDTPHDAIKVIGEF”, for which the protein production result is “failed”.

As to “MSVEKKVNDLLQKMTIEEKVYQLTSILIQDILENDKFSPQKAKEKIPHGIGQITRLAGASNLSPQEAAKTANEIQKFLIENTRLGIPAMIHEESCSGFMAKGATVFPQSIGVACTFDNEIVEELAKVIRTQMKAVGAHQALAPLIDVARDARWGRVEETFGEDPYLVANMAVSYVKGLQGDDIKKGIVATGKHFVGYAMSEGGMNWAPVHIPERELREVYLYPFEVAVKVAGLKSIMPAYHEIDGIPCHANRKLLTDIARNEWGFDGIYVSDYSGVRNLLDYHKSVKTYEEAAALSLWAGLDIELPKIECFTEEFIKALKEGKFDMTLVDAAVKRVLEMKFRLGLFDNPYIKTDGIVELFDNKEQRQLSRRVAQESMVLLKNDNFLPLSKDSKKIAVIGPNANSVRNLLGDYSYPAHIATLEMFFIKEDKGVGNEEEFVRNVINMKSIFEAIKDKVSSNTEVVYAKGCDVNSQDRSGFEEAKKAAADADAVILVVGDKAGLRLDCTSGESRDRASLRLPGVQEDLVKEIVSVNPNTVVVLVNGRPVALDWIMENVKAVLEAWFPGEEGANAVADVLFGDYNPGGKLAISFPRDVGQVPVYYGHKPSGGKSCWHGDYVEMSTKPLLPFGYGLSYTTFEYKNFAIEKEKIGMDESIKISVEIENTGKYEGDEIVQLYTRKEEYLVTRPVKELKGYKRVHLKPGEKKKVVFELYPDLFAFYDYDMNRVVTPGVVEVMIGASSEDIKFTGTFEIVGSKKDAKELKHYFSKVWCE”, the protein production result is recorded as “failed”.

Take “ATEATNATNNQSTQVSQATSQPINFQVQKDGSSEKSHMDDYMQHPGKVIKQNNKYYFQTVLNNASFWKEYKFYNANNQELATTVVNDNKKADTRTINVAVEPGYKSLTTKVHIVVPQINYNHRYTTHLEFEKAIPTLADAAK”: the protein production entry is reported as “not failed”.

For the sequence “MSRRDFTRYVRDKAWLAIPGWLFVAALTLLALRKHLSNLRQHQQLLQGNERIRDSEEQARLILDTAPLALLLVNPQTARIRHANSLAREMLGLPPRDPEQAAGSELNLPLKLQPVEQWLSEGEEVLQQEVELELEDKSRLWAIVSLRRLGHDSQPSALIALYDISGRKLLEQQLHESNQQLAEMAVTDPLTRLYNRRHADMVLRDEISRCERYGQTMAIAVFDIDHFKRFNDQYGHQAGDDVLVAVANALRDTTRNTDINARIGGEEFMVIFPYTRLRDAHKVMSRLQMALTHTTFPFVEQRITFSGGVTDWRPGDSPALMMSRADKLLYDAKQAGRNVVLSDQEEA”, the protein production entry is given as “failed”.

For “VMRLVTLRSHDQYNTTIYAMDDRYRGVFGRRDVLFMNEQDMAAQGLEHGDRVDIHTALPGSALTLEDITVVAYGIAPGTVGAYYPEANVLVPLNYLDEESGTPSYKSVPVRLTLRSKEIRPLVGGR”, the protein production entry was “not failed”.

For “MSFKVISTGPQAIFQDRGRFGFASAGVGTSGSFDRLSAARANHALGNDPNATVVEILLGGFEVEALHTTSIVFTGTEAEVMVRTAGGQSKNATTNTIIDVAAGERIRVEPATYGMRAYFAARGGFAVEKTLGSASTDLISHMGPRPIEPGDVIDVATDIADSQWWPKLRQLPTLWKRMPTETLTVIRGPRDKWFTQESLNNFFTQVFTVSNDSNRIGLRMHSSEPIQHRVEGELKSEGMVRGSIQIPPGGNPVVFGPDHPVTGGYPVIAVLTSRSCDRSAQLLPGDKVRFKLL”, the protein production entry is “failed”.

With “MVSTLGSDTFTSISAHDLHGKLGNIHLIDVRENDDFKEGHIPTSRNIPMDILLKEPEKYINKTDEYYIVCQAGVKSEKTCKELWSKGYKVINIKDGTDSYKQPLER”, the protein production entry is listed as “failed”.

Turning to “MAASVANCCFSVLNASVKIQSSSISSPWCFVSASSLTPRASSNIKRKSSRSDSPSPILNPEKNYPGRVRDESSNPPQKMAFKAFGSPKKEKKESLSDFSRDQQTDPAKIHDASFLNAVVKVSKSNSLSSLKFTLLAFEPTRASFQVYCTHTAPDYSLPWQKQRQFTSTGSAFMIGDGKLLTNAHCVEHDTQVKVKRRGDDRKYVAKVLVRGVDCDIALLSVESEDFWKGAEPLRLGHLPRLQDSVTVVGYPLGGDTISVTKGVVSRIEVTSYAHGSSDLLGIQIDAAINPGNSGGPAFNDQGECIGVAFQVYRSEETENIGYVIPTTVVSHFLTDYERNGKYTGYPCLGVLLQKLENPALRECLKVPTNEGVLVRRVEPTSDASKVLKEGDVIVSFDDLHVGCEGTVPFRSSERIAFRYLISQKFAGDIAEIGIIRAGEHKKVQVVLRPRVHLVPYHIDGGQPSYIIVAGLVFTPLSEPLIEEECEDTIGLKLLTKARYSVARFRGEQIVILSQVLANEVNIGYEDMNNQQVLKFNGIPIRNIHHLAHLIDMCKDKYLVFEFEDNYVAVLEREASNSASLCILKDYGIPSERSADLLEPYVDPIDDTQALDQGIGDSPVSNLEIGFDGLVWA”, the protein production entry was “failed”.

For the sequence “MNKWAILSLACVPYALLTIVNEDTLEIGGSANIFWKIGLFAPLIGVLFSAGASKTYQRVMLALFNLSYYFVLYIYMIYTF”, the protein production result is recorded as “failed”.

Take “MTKSELIEQLCSKKPQLSAKQVEDTVKEILEQMATTLEGGDRIEIRGFGSFSLHYREPRLGRNPKTGDKVELDGKFVPHFKPGKELRERVNYS”: the protein production entry is “failed”.

Turning to “MVIGVTGKIGTGKSTVCEILKNKYGAHVVNVDRIGHEVLEEVKEKLVELFGGSVLEDGKVNRKKLAGIVFESRENLKKLELLVHPLMKKRVQEIINKTSGLIVIEAALLKRMGLDQLCDHVITVVASRETILKRNREADRRLKFQEDIVPQGIVVANNSTLEDLEKKVEEVMKLVWEKRE”, the protein production entry is “not failed”.

For “MSIGFYANDNFMGKSHIMDKSGKPHIGISKYPVIITQAKQQKLRKAINEARESNDILMVDFPRQMLITEHDDELVKSLGESLEEDLEYLGAIFYGKSKYVDSITGKFSLWRSNNVKVNLEHHHHHH”, the protein production result was “failed”.

Take “MGVYPPSEDSFLIIEYASCSGKAIEIGCGTGIVSICFLKRGCDIEAVDISDLAVECAKDNASRNGLTLKVYRSDLFSGVSGTYDTILFNAPYIPVEGEDASWSGGRNLEVVSRFLGQAREHLSASGQIYIVLSDLTDNEGMFRMMGYDYFIIKKISFEFEAIVLYKLTLKALEHHHHHH”: the protein production entry was “failed”.

“MARPQDPPRGFFPFGNPFKNLSSKNSVLSSKLLPLLNNFETNLASSISKLVPKEKSDILTVSWMKQAMESLCETHNGIKTLITDLELPVSDWEDKWVDVYLDISVKLLDLCNAFSSELTRLNQGHLLLQFALHNLEANSPQNLSKAQSSLDSWKQHIVSKNPRIENCRAILSSLVQTLNLPKVKNSAKGKVLMRALYGVKVKTLYISGVFAAAFSGSSQNLMYLTVSNELPWAQSFMEVQNTMNAEIKNIFLSDGLTVLKELEAVASGVKKLYPAIQQGSIDPISLQPLKDSVTELSNGIDLVSKEVDCFFKILLSGRDTLLENLRSMGASTLQATSPKKAAGKNYRGF”: the protein production entry is “failed”.

Regarding “GYNRRFDAGFVAARAAVASGELGALHTVRSTTLDPAPPPPAYVAASGGIFRDCSVHDFDIIRWVTGREVVEVYATGGNRGADYIAAAGDADTTAAVLTLDDGTLAVVSNSRHNARGHDVRMELHGFRDSIAVGLEDRLPLRSVEPGTSFPAGTPHDFFMDRFAAAYRAELTAFTEVVAGRRPSPCTVADALEAGWIAEACTLSLHSHRPVTVEEVRRQS”, the protein production entry is on record as “failed”.

“MKTFKGKVTTTLAVLSAMSLFAFSASLLAGSLDLSGRSDDDTQQDTGRKPAQIIDFVGVEKGDKVLDLLAGGGYYSELLSRVVGEKGEVTLQIPKAYLKYAEKSIKVRLANDRLKNVTYLLSEADDLKLSENTYDSAFLVLGFHDMFFKEDSWNFTADEVMPQVLTSLKSGGKLLVIDHDATENSGIRDVKSLHRIDSAFVKADLEKRGFKLVKTSKILENNADDHSKLVFVPELRRKTDRFVMLFEKI”: the protein production result was “failed”.

For the sequence “MLILSTEKEPNFEYEEITRSFLSNMLAFTRGHFTGDISHFSPIVLAEMEKDPNWLEEAAGGMQGVIVQSLLEDENFSSVEQLKGELARLIRLYFALAKDNLTENQESLYVDLFDKFTFLLLCSDEFIMYLDSQPKF”, the protein production result is “not failed”.

As for “MALPPYDPNFKFAFSLGTIAKHQDYDESASAAVVALDLISSARFALKLDSVYTEYSAKYVVDNAAGSHSGRKLTVKDCLEFALNKGGIPKAEDWPRLGSVITPPSSYKPDLVSMKGQVIEPQTIEEACDMVVDQPVGAKLHVFKPHIELQQDASAITGIYCGTSGEPASYVGLRDAIIVGVEKIQGKSIGTVKVWYKKFIFLKVAMSRWFQLYSPDGTHTGIKRTDYLVDFCVPRLSMD”, the protein production entry is “failed”.
